Key:
[1] = biological target: GluA1/GluA2(R) E658K AMPA receptor heteromer (rat) (UniProt P19490)
[2] = biological target: GluA1 E651K/GluA2(R) E658K AMPA receptor heteromer (rat) (UniProt P19490)
[3] = biological target: GluA1/GluA2(R) AMPA receptor heteromer, wild type (rat) (UniProt P19490)
[4] = biological target: GluA1 E651K/GluA2(R) AMPA receptor heteromer (rat) (UniProt P19490)
[5] = biological target: homomeric GluA2Q_(flip) AMPA receptor, wild type (rat) (UniProt P19491)
[6] = biological target: homomeric GluA2Q_(flip) E658K AMPA receptor (rat) (UniProt P19491)
[7] = biological target: GluA tetramers (sum of all co-purified GluA1-4 proteins divided by four) (rat (endogenous in rat brain)); assay: affinity purification with mass spectrometry; multi-epitope AP-MS: three polyclonal anti-GSG1L antibodies on protein A Dynabeads, 2 h; membranes of adult (P59) rat brain solubilised in CL-47; GSG1L KO rats as negative control; minimum tnR of 0.25 as indicator of specific interaction

stoichiometry N (GSG1L per GluA tetramer) [7]	Substance	fast time constant of recovery from desensitization of heteromers with EK on GluA2 only, co-expressed with GSG1L [1] [ms]	slow time constant of recovery from desensitization of heteromers with EK on GluA2 only, co-expressed with GSG1L [1] [ms]	single time constant of recovery from desensitization of heteromers with EK on both GluA1 and GluA2, co-expressed with GSG1L [2] [ms]	fast time constant of recovery from desensitization of GluA1/A2 heteromers co-expressed with GSG1L [3] [ms]	slow time constant of recovery from desensitization of GluA1/A2 heteromers co-expressed with GSG1L [3] [ms]	time constant of recovery from desensitization (mono-exponential) of heteromers with EK on GluA1 only, co-expressed with GSG1L [4] [ms]	fast time constant of recovery from desensitization (τ (recovery), two-pulse protocol, 10 mM L-Glu, outside-out patches of HEK293T/17 cells co-expressing GluA2 and GSG1L) [5] [ms]	slow time constant of recovery from desensitization (τ (recovery), two-pulse protocol, 10 mM L-Glu, outside-out patches of HEK293T/17 cells co-expressing GluA2 and GSG1L) [5] [ms]	single time constant of recovery from desensitization of GluA2 E658K co-expressed with GSG1L (the mutation eliminated the ability of GSG1L to slow recovery) [6] [ms]
–	mouse GSG1L (co-expressed, +GSG1L) (from UniProt D3Z7H4 1-322) (natural protein)	80.6	446	130	23.7	548	338	37.5	322	48
1.74	germ cell-specific gene 1-like protein (GSG1L) (from UniProt D3ZK93 1-322) (natural protein)	–	–	–	–	–	–	–	–	–

Source: paper PMC10603098
